Reference: US20210189342A1, “COMPOSITIONS AND METHODS FOR MODULATING MONOCYTE AND MACROPHAGE INFLAMMATORY PHENOTYPES AND IMMUNOTHERAPY USES THEREOF” (Verseau Therapeutics, Inc., priority 2018, published 2021)

Experiments:
[1] = system: FERMT3; assay: siRNA dose response, FERMT3 mRNA knockdown, bDNA Assay; assay type: cell-based, human; conditions: THP-1, 24 hr
Protocol: Dose response curves for siRNAs were generated in vitro using a variety of cell lines according to Table 4.
Briefly, cells were seeded in 96-well plates and reverse transfected with siRNA, Lipofectamine® 2000 (0.5 uL/well; ThermoFisher), and, in some cases, a reporter plasmid (50 ng/well). The reporter plasmid (psiCHECK™-2, Promega) encoded both firefly luciferase and the gene of interest fused to renilla luciferase; silencing of the gene of interest results in proportional silencing of renilla luciferase but leaves firefly luciferase unaffected as an internal control.
After 24 hr incubation at 37° C., mRNA knockdown was measured using an endpoint assay. For targets without a reporter plasmid, a branched DNA (bDNA) assay was performed according to the manufacturer's instructions (QuantiGene® Singleplex Gene Expression Assay, ThermoFisher) to measure both the target gene and GAPDH (housekeeping gene) mRNA. Data are plotted as siRNA concentration (nM) vs. remaining mRNA (ratio of target gene to GAPDH, normalized to mock siRNA-transfected cells). For targets with a reporter plasmid, a Dual-Glo® Luciferase Assay was performed according to the manufacturer's instructions (Promega) to measure firefly and renilla luciferase expression. Data are plotted as siRNA concentration (nM) vs. remaining mRNA (ratio of renilla to firefly luminescence, normalized to mock siRNA-transfected cells).
For all dose response curves, a 4-parameter logistic model was applied to determine the IC50 of each siRNA sequence (Table 5 and FIG. 2). Data shown in Table 5 and FIG. 2 represent the mean of quadruplicates, +/−standard deviation.

[2] = system: M2 macrophages; assay: M2 macrophage polarization, antibodies added only during the last two days, cytokines; assay type: cell-based, human; conditions: 10 ug/mL (77, 78, 81-84 at 1 ug/mL), FIGS. 4D-4G
Protocol: Briefly, monocytes were isolated from whole blood of fresh donors by Ficoll separation with RosetteSep™ Human Monocyte Enrichment Cocktail (Stemcell Techhnologies, Vancouver Canada) according to the manufacturer's instructions. Isolated monocytes were arrayed in 24-well plates overnight in Iscove's Modified Dubelcos Media ([…]) (ThermoFisher) media containing 10% fetal bovine serum and non-adherent cells were washed off after 24 hours. Monocytes were differentiated into macrophages by culturing for 6 days in IMDM 10% FBS plus 50 ng/ml human M-CSF for M2 macrophages, or 50 ng/ml GM-CSF (Biolegend, San Diego, Calif.) for M1 macrophages. M1 macrophages were activated on day 6 with IFN-gamma and LPS, whereas M2 macrophages were polarized on day 6 with 20 ng/ml IL-10 and activated on day 7 with 100 ng/ml LPS. […] Cells were assessed for expression of M1 and M2 markers as described above and cell free supernatants were collected for analysis. Data are representative of at least 3-4 healthy donors.
Beyond phenotypic surface markers, M1 (such as Type 1) and M2 (such as Type 2) macrophages produce different cytokines and chemokines. For example, M1 macrophages produce more pro-inflammatory cytokines, including but not limited to, GM-CSF, IL-12, and TNF alpha, whereas M2 macrophages produce more pro-tumorigenic and immunosuppressive cytokines, such as VEGF, IL-10, and TGFb. […]

[3] = system: M2 macrophages; assay: macrophage differentiation assay with antibodies, M1 and M2 markers; assay type: cell-based; conditions: primary human macrophages under M2 skewing; antibody on day 1, 3 and 7; FIG. 4
Description: Monocytes were differentiated in vitro to M1-like (Type 1) and/or M2-like (Type 2) phenotypes (Ries et a. (2014) Cancer Cell 25:846-859; Vogel et al. (2014) Immunobiol. 219:695-703). In order to differentiate monocytes into M1 versus M2 phenotypes monocytes were isolated from whole blood of healthy donors by Ficoll separation with RosetteSep™ Human Monocyte Enrichment Cocktail (Stemcell Technologies, Vancouver, Canada) according to the manufacturer's instructions. Isolated monocytes were arrayed in 24-well plates overnight in IMDM Media containing 10% fetal bovine serum and non-adherent cells were washed off after 24 hours. […] Expression of M1 and M2 macrophage markers and surface expressed targets was assessed by flow cytometry. […]
Labeled cells were washed twice with FACS buffer and fixed with PBS+2% paraformaldehyde for flow cytometry analysis on an Attune™ flow cytometer (ThermoFisher). Data were analyzed via FlowJo software. Morphology was assessed via microscopy.
Briefly, monocytes were isolated from whole blood of fresh donors by Ficoll separation with RosetteSep™ Human Monocyte Enrichment Cocktail (Stemcell Techhnologies, Vancouver Canada) according to the manufacturer's instructions. […] Cells were assessed for expression of M1 and M2 markers as described above and cell free supernatants were collected for analysis. […]

Row | Molecule | IC50 [1] | polarization of M2 macrophages to a more M1-like state, increase in pro-inflammatory cytokines [2] | effect on macrophage phenotypic marker sets (classical and novel biomarkers), reversal of skewing towards M2 [3]
1 | XD-09705: siRNA targeting FERMT3 (sense 5'-guucccGAuGuuAacGucudTsdT-3'; antisense 5'-AGACGUuAAcAUCGGGAACdTsdT-3'; RNA with 2'-O-methyl and phosphorothioate modifications, case key not given here, as printed in the source, key not given here) | 6.75 nM |  | 
2 | Ab 8: recombinant human IgG4 (S228P) chimera, kappa light chain; variable regions in Table 6 (antibody, V domains shown, human IgG4 S228P constant regions) VH: QVQLQQSGPGLVKPSQTLSLTCAISGDSVSSNIAAWHWIRLSPSRGLEWLGRTYYRRSKWNYDYALSVKSRININPDTSKNLFSLQLNSVTPEDTAVYYCTRGGGRAHSAWGQGTLVTVSS VL: EIVLTQSPGTLSVSPGERATLSCRASQSVSRSHLAWYQQKPGQAPRLLIFGASSRATGIPDRFSGSGSGTDFTLTISRLEPEDFAVYYCQQYGRPGVTFGQGTKVEIK |  | dramatically effect polarization of M2 macrophages to a more M1-like state | dose-titratable effect
3 | Ab 18: recombinant human IgG4 (S228P) chimera, lambda light chain; variable regions in Table 6 (antibody, V domains shown, human IgG4 S228P constant regions) VH: EVQLLESGGGLVRPGGSLRLSCAASGFTFSSYAMSWVRQAPGKGLEWVSAISGSGGSTYYADSVKGRFTISRDNSKNTLYLQMNSLRAEDTAVYYCARDKRLTYWGQGTMVTVSS VL: QSVVTQPPSVSAAPGQKVTISCSGSSSNIGNNYVSWYQQLPGTAPKLLIYDNNKRPSGIPDRFSGSKSGTSATLGITGLQTGDEADYYCGTWDSSLSARVFGGGTKVTVL |  | dramatically effect polarization of M2 macrophages to a more M1-like state | dose-titratable effect
